Experimental data reported in the supplement of paper PMC7877785.
± gives the uncertainty stated by the source.

Assay: self-splicing fitness, log relative to wild type (ln ratio); higher = more splicing; Tetrahymena group I intron in knt gene, E. coli kanamycin selection, DiMSum; sequences stand for … in CUCUCU…GGAGGGAAAAGUUAUCAGGCAUGCACCUGGUAGCUAGUCUUUAAACCAAUAGAUUGCAUCGGUUUAAAAGGCAAGACCGUCAAAUUGCGGGAAAGGGGUCAACAGCCGUUCAGUACCAAGUCUCAGGGGAAACUUUGAGAUGGCCUUGCAAAGGGUAUGGUAAUAAGCUGACGGACAUGGUCCUAACCACGCAGCCAAGUCCUAAGUCAACAGAUCUUCUGUUGAUAUGGAUGCAGUUCACAGACUAAAUGUCGGUCGGGGAAGAUGUAUUCUUCUCAUAAGAUAUAGUCGGACCUCUCCUUAAUGGGAGCUAGCGGAUGAAGUGAUGCAACACUGGAGCCGCUGGGAACUAAUUUGUAUGCGAAAGUAUAUUGAUUAGUUUUGGAGUACUCGUGGUCG
Summary of the method: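 The eight P1ex-region nucleotides of an intron in the knt kanamycin-resistance gene on pET-22b(+) were all randomised and the library put into E. coli BL21(DE3). Six replicate transformations were grown overnight at 37°C or 30°C on LB agar with or without 25 μg/mL kanamycin, together with 100 μg/mL carbenicillin, 50 μM IPTG and 0.2% rhamnose. Colonies were pooled and amplicon-sequenced on an Illumina HiSeq 2500. Fitness from DiMSum is the error-weighted combination of wild-type-normalised replicate fold changes, kanamycin over none.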

| Sequence | self-splicing fitness (ln) (30 °C) | self-splicing fitness (ln) (37 °C) |
| --- | --- | --- |
| GCCCAGCAAUAUUACGUGCA | -1.47 ± 0.083 | -0.691 ± 0.083 |
| GCGAAGCAAUAUUACGGUAC | -2.89 ± 0.17 | -1.2 ± 0.15 |
| GACGAGCAAUAUUACGCGAA | -2.91 ± 0.31 | -1.16 ± 0.21 |
| UAUUAGCAAUAUUACGGGUG | -0.149 ± 0.069 | 0.0549 ± 0.098 |
| AUGCAGCAAUAUUACGUCCU | 0.0695 ± 0.095 | 0.786 ± 0.11 |
| GGAUAGCAAUAUUACGUCGA | -0.726 ± 0.1 | -0.0349 ± 0.098 |
| CCGUAGCAAUAUUACGUCUC | -3.43 ± 0.21 | -3.67 ± 0.31 |
| CUGUAGCAAUAUUACGGCGU | -3.75 ± 0.33 | -2.2 ± 0.33 |
| GAAGAGCAAUAUUACGGUCU | -2.52 ± 0.26 | -0.469 ± 0.24 |
| UUGCAGCAAUAUUACGAAGU | -2.38 ± 0.23 | -1.75 ± 0.36 |
| UAGGAGCAAUAUUACGAACC | -3.08 ± 0.41 |  |
| UCGUAGCAAUAUUACGCAGG | -2.49 ± 0.18 | -2.17 ± 0.21 |
| AUCUAGCAAUAUUACGACUG | -2.01 ± 0.14 | -1.07 ± 0.15 |
| CGAAAGCAAUAUUACGACUU | -1.64 ± 0.12 | -0.99 ± 0.14 |
| UGUAAGCAAUAUUACGUUCU | -0.123 ± 0.085 | -0.0225 ± 0.1 |
| AGCAAGCAAUAUUACGCAUA | -1.96 ± 0.14 | -1.06 ± 0.15 |
| UCUAAGCAAUAUUACGCGCA | -0.493 ± 0.11 | -0.561 ± 0.13 |
| CCAAAGCAAUAUUACGUCGA | -3.66 ± 0.15 | -2.92 ± 0.18 |
| ACUGAGCAAUAUUACGAGUC | -3.18 ± 0.23 | -3.2 ± 0.28 |
| CAGAAGCAAUAUUACGCGUA | -2.63 ± 0.27 | -1.69 ± 0.15 |
| AUAUAGCAAUAUUACGUGAA | -1.57 ± 0.28 | -0.717 ± 0.33 |
| GCAGAGCAAUAUUACGAGGU |  | -2.24 ± 0.31 |
| CCCUAGCAAUAUUACGGGCA | -2.16 ± 0.22 | -1.55 ± 0.2 |
| UUUCAGCAAUAUUACGGGUU | -3.19 ± 0.24 | -2.13 ± 0.18 |
| GAACAGCAAUAUUACGCUAU | -2.43 ± 0.1 | -1.21 ± 0.11 |
| UGGUAGCAAUAUUACGAGGC | -2.16 ± 0.28 | -2.19 ± 0.28 |

| Sequence | self-splicing fitness (ln) (30 °C) | self-splicing fitness (ln) (37 °C) |
| --- | --- | --- |
| AAAGAGCAAUAUUACGCGUC | -2.18 ± 0.2 | -2.6 ± 0.21 |
| ACAAAGCAAUAUUACGCUCG | -0.887 ± 0.08 | 0.156 ± 0.12 |
| GUAAAGCAAUAUUACGAUCU | 0.147 ± 0.057 | 0.161 ± 0.069 |
| UGAAAGCAAUAUUACGAUGC |  | -2.83 ± 0.41 |
| AAAAAGCAAUAUUACGUAUU | -1.92 ± 0.077 | -1.39 ± 0.11 |
| GUGCAGCAAUAUUACGGAGG | -3.96 ± 0.22 | -2.55 ± 0.25 |
| CCCAAGCAAUAUUACGUAUU | -3.8 ± 0.16 | -2.7 ± 0.17 |
| CCCAAGCAAUAUUACGAAGC | -3.21 ± 0.2 | -2.7 ± 0.24 |
| GCGUAGCAAUAUUACGAGCU | -1.5 ± 0.12 | -1.66 ± 0.23 |
| CGUUAGCAAUAUUACGUUGG | -1.45 ± 0.091 | -0.573 ± 0.12 |
| ACGGAGCAAUAUUACGGUAG |  | -2.33 ± 0.31 |
| CCGUAGCAAUAUUACGAUCG | 0.0338 ± 0.098 | 0.353 ± 0.12 |
| AUAAAGCAAUAUUACGGUUG | -1.68 ± 0.1 | -1.36 ± 0.15 |
| CCGUAGCAAUAUUACGCGUA | -3.69 ± 0.3 | -2.06 ± 0.31 |
| UUUUAGCAAUAUUACGGUGG | -1.24 ± 0.084 | -1.16 ± 0.13 |
| UGUAAGCAAUAUUACGGGAC | -2.45 ± 0.25 | -2.62 ± 0.44 |
| AACCAGCAAUAUUACGGGCG | -0.173 ± 0.068 | 0.356 ± 0.081 |
| GCUCAGCAAUAUUACGUUAU | -1.08 ± 0.12 | -0.166 ± 0.12 |
| UGUGAGCAAUAUUACGCACA | -2.63 ± 0.29 | -2.84 ± 0.34 |
| GCAUAGCAAUAUUACGACUC | -0.352 ± 0.16 | 0.841 ± 0.13 |
| CCCAAGCAAUAUUACGGAUC | -4.28 ± 0.23 | -2.45 ± 0.15 |
| CGGAAGCAAUAUUACGUUUG | -1.9 ± 0.071 | -1.35 ± 0.089 |
| CUAAAGCAAUAUUACGUGGG | -2.9 ± 0.11 | -1.09 ± 0.092 |
| UAAUAGCAAUAUUACGCGGG | -3.18 ± 0.21 | -1.65 ± 0.2 |
| UCAAAGCAAUAUUACGUGUU | -3.06 ± 0.1 | -2.8 ± 0.14 |
| GUUCAGCAAUAUUACGUGCU |  | -2.98 ± 0.28 |

| Sequence | self-splicing fitness (ln) (30 °C) | self-splicing fitness (ln) (37 °C) |
| --- | --- | --- |
| GCAUAGCAAUAUUACGUAAC | -2.24 ± 0.13 | -1.57 ± 0.14 |
| CAACAGCAAUAUUACGAUAU | -4 ± 0.15 | -2.2 ± 0.13 |
| CAUCAGCAAUAUUACGCCAU | -3.98 ± 0.35 | -2.97 ± 0.24 |
| AUAUAGCAAUAUUACGACCG | -1.62 ± 0.22 | 0.433 ± 0.41 |
| AGGAAGCAAUAUUACGGGUU | -3.14 ± 0.15 | -1.96 ± 0.15 |
| CAUGAGCAAUAUUACGAUAU | -3.32 ± 0.25 | -2 ± 0.31 |
| GCCGAGCAAUAUUACGAGAU | -2.65 ± 0.19 | -1.66 ± 0.2 |
| CAUCAGCAAUAUUACGUCAC | -3.06 ± 0.15 | -2.68 ± 0.23 |
| GCUCAGCAAUAUUACGCUAA | -2.11 ± 0.11 | -0.785 ± 0.11 |
| UCCCAGCAAUAUUACGCAGA | -0.882 ± 0.06 | -0.0561 ± 0.073 |
| ACUCAGCAAUAUUACGAGUG | -1.59 ± 0.081 | -0.296 ± 0.11 |
| AAGCAGCAAUAUUACGUUCC | -1.73 ± 0.11 | -1.54 ± 0.17 |
| GUUGAGCAAUAUUACGUGCC | -3.02 ± 0.45 |  |
| GCCCAGCAAUAUUACGACCA | -1.44 ± 0.19 | -0.385 ± 0.23 |
| CUCGAGCAAUAUUACGUUGC | -3.84 ± 0.42 | -3.45 ± 0.37 |
| ACCGAGCAAUAUUACGAGUU | -3.25 ± 0.14 | -2.87 ± 0.15 |
| ACUGAGCAAUAUUACGACGC | 0.0713 ± 0.15 | 0.648 ± 0.2 |
| GUCAAGCAAUAUUACGAACU | -2.42 ± 0.11 | -1.38 ± 0.12 |
| UUCGAGCAAUAUUACGUAUC | -3 ± 0.34 | -0.649 ± 0.23 |
| GAUUAGCAAUAUUACGAGGG | -2.81 ± 0.29 | -2.88 ± 0.29 |
| UGCAAGCAAUAUUACGCAAA | -2.5 ± 0.17 | -2 ± 0.15 |
| CACCAGCAAUAUUACGUUUU | -3.95 ± 0.15 | -3.22 ± 0.18 |
| GAAAAGCAAUAUUACGUGAA | -1.56 ± 0.065 | -1.33 ± 0.085 |
| UGGCAGCAAUAUUACGGACU | -0.554 ± 0.066 | 0.386 ± 0.082 |
| UGGAAGCAAUAUUACGCCAA | -1.12 ± 0.24 | -0.536 ± 0.26 |
